In article PMC11455607:
Like-named read-outs stand apart in the source and are kept apart here.

How the values were obtained:
Cy3-CRX HD;NRL DBD [1] = target: T1, Cy3-CRX HD;NRL DBD (;, UniProt O43186;P54845 31-107;128-237, |); test: smTIRFM
Cy3-CRX HD;NRL DBD [2] = target: T1, Cy3-CRX HD;NRL DBD; test: smTIRFM; remark: listed apart in the source
Cy3-CRX HD = Cy3-CRX HD (UniProt O43186 31-107); test: smTIRFM
CRX HD R90W = CRX HD R90W (UniProt O43186 31-107, R90W); test: BLI
CRX HD E42K [3] = target: T2, CRX HD E42K (UniProt O43186 31-107, E42K); test: BLI
T2 sequence (O43186 31-107 E42K): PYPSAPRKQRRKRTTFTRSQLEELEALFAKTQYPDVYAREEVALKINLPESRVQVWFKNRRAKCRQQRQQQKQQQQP

CRX HD R41Q [4] = target: T3, CRX HD R41Q (UniProt O43186 31-107, R41Q); test: BLI
T3 sequence (O43186 31-107 R41Q): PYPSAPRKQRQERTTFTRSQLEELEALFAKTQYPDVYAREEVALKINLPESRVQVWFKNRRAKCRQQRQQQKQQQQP

CRX HD (His) = CRX HD (His) (UniProt O43186 31-107); test: BLI
CRX HD (His), sequence (O43186 31-107): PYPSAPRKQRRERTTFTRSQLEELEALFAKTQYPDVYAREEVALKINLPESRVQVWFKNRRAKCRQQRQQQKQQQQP

CRX HD E42K [5] = target: T2, CRX HD E42K; test: SEC-MALS
CRX HD R41Q [6] = target: T3, CRX HD R41Q; test: SEC-MALS

T1 sequence (O43186 31-107, chain 1 of 2): as the sequence (O43186 31-107) above
T1 sequence (P54845 128-237, chain 2 of 2): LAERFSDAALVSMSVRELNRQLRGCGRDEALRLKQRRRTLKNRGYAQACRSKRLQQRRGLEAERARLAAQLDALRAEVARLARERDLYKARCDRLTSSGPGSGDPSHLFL
CRX HD R90W, sequence (O43186 31-107 R90W): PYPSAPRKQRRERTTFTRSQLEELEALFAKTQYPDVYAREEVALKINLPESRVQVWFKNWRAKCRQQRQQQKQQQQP
Cy3-CRX HD, sequence (O43186 31-107): as the sequence (O43186 31-107) above

B1: NRE-Ret4 38-mer biotinylated (dsDNA)
DNA 1: CCAGATGCTGATTCAGCCAGGAGCTTAGGAGGGGGAGG
DNA 2: CCTCCCCCTCCTAAGCTCCTGGCTGAATCAGCATCTGG
Kd (Cy3-CRX HD;NRL DBD [1]): 28 nM | Kd (Cy3-CRX HD;NRL DBD [2]): 39.6 nM | Kd (Cy3-CRX HD): 55.1 nM

B2: Ret4 20-mer biotinylated (dsDNA)
DNA 1: CAGGAGCTTAGGAGGGGGAG
DNA 2: CTCCCCCTCCTAAGCTCCTG
Kd (CRX HD R90W): 900 ± 30 nM | Kd (CRX HD E42K [3]): 30 ± 10 nM | Kd (CRX HD R41Q [4]): 1250 ± 30 nM | Kd (CRX HD (His)): 430 ± 30 nM

B3: Ret4 21-mer (dsDNA)
DNA 1: CCAGGAGCTTAGGAGGGGGAG
DNA 2: CCTCCCCCTCCTAAGCTCCTG
binding result (CRX HD E42K [5]): binds | binding result (CRX HD R41Q [6]): binds
